# Values of other authors, collected in article PMC7689341.
# Read-outs that look alike come from different tables or passages of the source.
# Key:
# IFNAR2 (Homo sapiens) [1] = biological target: IFNAR2 (Homo sapiens) (UniProt P48551)
# IFNAR2 (Homo sapiens) [2] = biological target: IFNAR2 (Homo sapiens) (UniProt P48551); remark: listed apart in the source
# IFNAR1 (Homo sapiens) = IFNAR1 (Homo sapiens) (UniProt P17181)
# IFNAR2 (Mus musculus) = IFNAR2 (Mus musculus) (UniProt O35664)
# IFNAR1 (Mus musculus) = IFNAR1 (Mus musculus) (UniProt P33896)
# IFNλR1 (Homo sapiens) = IFNλR1 (Homo sapiens) (UniProt Q8IU57)
# [3] = biological target: IFNλ3/IFNλR1 complex (Homo sapiens) (UniProt Q8IZI9)
# Sequence of IFNλ3/IFNλR1 complex (Homo sapiens) (Q8IZI9 22-196, chain 1 of 2): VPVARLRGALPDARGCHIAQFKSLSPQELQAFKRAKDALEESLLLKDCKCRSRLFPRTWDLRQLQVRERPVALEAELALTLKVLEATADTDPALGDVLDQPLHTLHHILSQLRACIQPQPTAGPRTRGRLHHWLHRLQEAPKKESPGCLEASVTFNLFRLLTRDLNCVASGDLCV
# Sequence of IFNλ3/IFNλR1 complex (Homo sapiens) (Q8IU57 21-228, chain 2 of 2, further chain): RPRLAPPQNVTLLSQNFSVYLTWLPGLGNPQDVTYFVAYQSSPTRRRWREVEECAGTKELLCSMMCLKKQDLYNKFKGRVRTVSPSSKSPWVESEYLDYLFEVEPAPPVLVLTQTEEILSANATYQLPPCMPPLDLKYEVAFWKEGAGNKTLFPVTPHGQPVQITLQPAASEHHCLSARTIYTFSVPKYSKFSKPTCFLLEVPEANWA
# Sequence of IFNAR2 (Homo sapiens) (P48551 27-243): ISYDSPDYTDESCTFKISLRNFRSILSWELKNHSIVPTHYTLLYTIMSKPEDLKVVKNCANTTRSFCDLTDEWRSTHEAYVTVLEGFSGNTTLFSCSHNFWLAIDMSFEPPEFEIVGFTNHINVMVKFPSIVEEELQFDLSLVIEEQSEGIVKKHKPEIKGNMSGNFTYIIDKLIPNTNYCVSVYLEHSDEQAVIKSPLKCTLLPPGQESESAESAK
# Sequence of IFNβ (from UniProt P01575) (P01575 22-182): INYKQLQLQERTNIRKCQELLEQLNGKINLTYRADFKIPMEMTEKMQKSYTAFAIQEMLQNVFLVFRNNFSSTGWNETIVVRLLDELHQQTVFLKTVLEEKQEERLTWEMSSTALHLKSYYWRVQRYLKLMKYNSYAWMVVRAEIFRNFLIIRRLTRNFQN
# Sequence of IFNβ (from UniProt P01574) (P01574 22-187): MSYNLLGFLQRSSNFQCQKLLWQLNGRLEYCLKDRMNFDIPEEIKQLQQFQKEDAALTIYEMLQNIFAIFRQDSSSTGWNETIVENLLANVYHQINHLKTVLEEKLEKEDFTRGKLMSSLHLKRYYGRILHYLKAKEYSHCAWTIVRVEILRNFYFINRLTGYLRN
# Sequence of IL-10R2 (Q08334 20-220): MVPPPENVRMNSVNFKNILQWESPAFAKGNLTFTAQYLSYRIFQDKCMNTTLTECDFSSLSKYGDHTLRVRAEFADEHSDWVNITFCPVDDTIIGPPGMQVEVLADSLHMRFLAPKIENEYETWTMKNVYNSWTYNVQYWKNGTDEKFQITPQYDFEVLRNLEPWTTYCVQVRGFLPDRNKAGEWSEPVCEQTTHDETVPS
# Sequence of IFNAR1 (Mus musculus) (P33896 27-429): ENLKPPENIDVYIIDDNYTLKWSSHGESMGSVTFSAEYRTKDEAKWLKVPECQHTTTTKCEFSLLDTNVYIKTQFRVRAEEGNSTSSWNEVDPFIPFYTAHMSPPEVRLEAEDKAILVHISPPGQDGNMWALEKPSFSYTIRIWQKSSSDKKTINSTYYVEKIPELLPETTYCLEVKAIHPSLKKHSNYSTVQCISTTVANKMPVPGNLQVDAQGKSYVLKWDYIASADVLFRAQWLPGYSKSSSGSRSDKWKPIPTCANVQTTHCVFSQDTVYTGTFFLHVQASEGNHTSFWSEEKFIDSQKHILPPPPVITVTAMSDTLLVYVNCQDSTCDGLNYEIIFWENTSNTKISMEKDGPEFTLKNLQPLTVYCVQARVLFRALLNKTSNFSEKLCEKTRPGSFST
# Sequence of IFNAR2 (Mus musculus) (O35664 22-242): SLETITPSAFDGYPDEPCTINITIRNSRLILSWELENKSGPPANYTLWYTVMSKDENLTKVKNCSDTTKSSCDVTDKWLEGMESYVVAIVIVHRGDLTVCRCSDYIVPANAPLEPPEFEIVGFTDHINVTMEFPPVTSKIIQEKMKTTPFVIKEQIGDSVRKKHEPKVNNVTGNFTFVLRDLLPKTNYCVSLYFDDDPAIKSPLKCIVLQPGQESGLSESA
# Sequence of IFNλ3 (Q8IZI9 22-196): as the sequence (Q8IZI9 22-196, chain 1 of 2) above
# Sequence of IFNλR1 (Homo sapiens) (Q8IU57 21-228): as the sequence (Q8IU57 21-228, chain 2 of 2, further chain) above
# Sequence of IFNAR1 (Homo sapiens) (P17181 28-436): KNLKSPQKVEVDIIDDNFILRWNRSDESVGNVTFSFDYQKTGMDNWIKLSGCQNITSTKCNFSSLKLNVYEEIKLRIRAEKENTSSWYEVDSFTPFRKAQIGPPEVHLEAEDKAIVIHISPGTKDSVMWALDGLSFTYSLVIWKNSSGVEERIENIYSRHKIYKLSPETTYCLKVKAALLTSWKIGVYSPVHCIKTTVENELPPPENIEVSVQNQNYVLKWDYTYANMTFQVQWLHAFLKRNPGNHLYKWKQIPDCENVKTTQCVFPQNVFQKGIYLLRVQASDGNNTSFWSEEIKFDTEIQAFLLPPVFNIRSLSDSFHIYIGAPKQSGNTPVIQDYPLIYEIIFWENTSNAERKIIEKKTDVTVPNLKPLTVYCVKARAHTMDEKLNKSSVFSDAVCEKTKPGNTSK
substance,measurement,setting,value
IFNα1 (from UniProt P0DY56),Kd,IFNAR2 (Homo sapiens) [1],100 nM
IFNβ (from UniProt P01574),Kd,IFNAR2 (Homo sapiens) [2],0.1 nM
same,Kd,IFNAR1 (Homo sapiens),30 nM
IFNβ (from UniProt P01575),Kd,IFNAR2 (Mus musculus),1700 nM
same,Kd,IFNAR1 (Mus musculus),10 nM
IFNλ3 (from UniProt Q8IZI9),Kd,IFNλR1 (Homo sapiens),850 nM
IL-10R2 (from UniProt Q08334),Kd,[3],15000 nM
